Test results: paper PMC3045582
Read-outs that look alike come from different tables or passages of the source.

Experiments:
[1] = target: T1, Hpy188I restriction endonuclease (selenomethionine variant) (UniProt Q9KJ88 1-170); assay: X-ray crystallography
T1 sequence: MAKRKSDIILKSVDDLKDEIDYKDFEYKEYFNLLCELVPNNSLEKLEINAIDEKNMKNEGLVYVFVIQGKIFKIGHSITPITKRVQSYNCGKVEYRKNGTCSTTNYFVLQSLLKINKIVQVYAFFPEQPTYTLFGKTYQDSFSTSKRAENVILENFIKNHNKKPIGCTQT

[2] = target: T2, Hpy188I restriction endonuclease (native Met) (UniProt Q9KJ88 1-170); assay: co-crystallization
T2 sequence: T1 sequence

[3] = target: T1, Hpy188I restriction endonuclease …; assay: X-ray crystallography; remark: listed apart in the source

B1: 9-mer target oligoduplex cleaved in crystal at TCN|GA (product) (dsDNA)
DNA 1: GATCT
DNA 2: GAAC
DNA 3: GTTCA
DNA 4: GATC
binding result [1]: binds

B2: 9-mer target oligoduplex (uncleaved) (dsDNA)
DNA 1: GATCTGAAC
DNA 2: GTTCAGATC
binding result [2]: binds | binding result [3]: binds
